For one substance, stoichiometry N results are on record in article PMC3202870.

In this assay the target is PA63, the cell-associated furin-cleavage product of Bacillus anthracis protective antigen (PA83) (Bacillus anthracis). Briefly: SDS-PAGE and phosphoimaging of 125I-PA recovered from cells.

The substance “PA63, the cell-associated furin-cleavage product of Bacillus anthracis protective antigen (PA83) (domain or fragment)” gave a stoichiometry N of 7.

What is called stoichiometry N is the number of molecules, sites or subunits per partner or assembly.
